Source: patent US20150072933A1, “NOVEL SEQUENCES FOR THE CONTROL OF REPRODUCTION IN FISH” (Yissum Research Development Company of the Hebrew …, priority 2011, published 2015)
“Also recorded” adds a separate entry of the source. *1 amine or outer side, *2 acyl side, *3 side chain or, on linkers, in order; H or OH if unused. Where a SMILES comes first, the peptide text is derived from it. Where no end group is shown, it is not given here. [ ]: non-standard residue; d: D form. Suc = O=C(CCC(=O)[*:2])[*:1]; NMeV = CN[C@H](C(=O)O)C(C)C

T1: human NK3R (human NKB receptor) (human, UniProt P29371 1-465)
T1 sequence (looked up): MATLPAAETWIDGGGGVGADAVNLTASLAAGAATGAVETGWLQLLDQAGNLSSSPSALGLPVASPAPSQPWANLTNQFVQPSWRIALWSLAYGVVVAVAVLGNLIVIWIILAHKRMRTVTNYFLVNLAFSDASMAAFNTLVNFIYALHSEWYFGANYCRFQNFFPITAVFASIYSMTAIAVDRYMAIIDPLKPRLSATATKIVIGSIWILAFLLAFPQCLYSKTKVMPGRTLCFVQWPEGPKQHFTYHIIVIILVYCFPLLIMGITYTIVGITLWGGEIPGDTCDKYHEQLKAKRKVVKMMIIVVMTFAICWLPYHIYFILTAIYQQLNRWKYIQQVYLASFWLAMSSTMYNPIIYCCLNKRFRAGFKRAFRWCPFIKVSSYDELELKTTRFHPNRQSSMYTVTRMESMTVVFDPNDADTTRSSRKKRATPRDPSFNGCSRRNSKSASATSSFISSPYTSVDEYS

T2: zebrafish Tac3ra (tac3 receptor a, NKB receptor) (zebrafish)
T2 chain: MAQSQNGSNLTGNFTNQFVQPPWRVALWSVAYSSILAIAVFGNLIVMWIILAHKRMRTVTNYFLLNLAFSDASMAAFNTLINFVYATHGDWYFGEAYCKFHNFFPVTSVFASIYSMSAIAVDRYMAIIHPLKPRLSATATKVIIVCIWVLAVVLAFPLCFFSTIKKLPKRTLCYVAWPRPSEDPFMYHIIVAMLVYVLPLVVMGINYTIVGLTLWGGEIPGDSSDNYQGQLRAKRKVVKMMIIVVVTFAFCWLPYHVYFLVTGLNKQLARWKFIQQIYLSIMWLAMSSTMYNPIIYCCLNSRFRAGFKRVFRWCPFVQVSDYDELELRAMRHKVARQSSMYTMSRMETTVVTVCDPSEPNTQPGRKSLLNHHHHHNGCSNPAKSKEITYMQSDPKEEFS

T3: zebrafish Tac3rb (tac3 receptor b, NKB receptor) (zebrafish)
T3 chain: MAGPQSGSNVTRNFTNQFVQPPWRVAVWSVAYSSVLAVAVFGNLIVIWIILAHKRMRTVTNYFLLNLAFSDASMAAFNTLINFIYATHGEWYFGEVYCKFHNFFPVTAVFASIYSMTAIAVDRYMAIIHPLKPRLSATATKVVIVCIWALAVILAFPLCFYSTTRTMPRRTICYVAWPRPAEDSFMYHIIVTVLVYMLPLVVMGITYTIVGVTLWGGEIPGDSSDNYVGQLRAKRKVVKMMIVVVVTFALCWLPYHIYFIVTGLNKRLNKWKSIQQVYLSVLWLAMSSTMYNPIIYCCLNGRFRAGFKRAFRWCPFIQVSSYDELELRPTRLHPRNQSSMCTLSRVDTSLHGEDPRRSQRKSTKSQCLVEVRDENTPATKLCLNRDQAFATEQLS

B1: Zebrafish Tac3b peptide, neurokinin Bb (STGINREAHLPFRPNMNDIFVGLL-NH2) (peptide)
peptide: STGINREAHLPFRPNMNDIFVGLL-NH2
B2: Zebrafish Tac3f peptide, neurokinin F (YNDIDYDSFVGLM-NH2) (peptide)
peptide: YNDIDYDSFVGLM-NH2

Legend:
zfTac3rb [1] = test: Receptor transactivation assay, CRE-Luc reporter (PKA activation), COS-7 cells expressing zfTac3rb; type: cell-based, zebrafish; settings: Table 6 (native peptides and analogues), PKA activation, mean ± SEM, read-out: EC50 using CRE-Luc, zfTac3rb
Method: (§1) In order to study the signaling pathways of the novel zebrafish NKBs, the entire coding regions of zftac3ra (denoted by SEQ ID NO:6) or zftac3rb (denoted by SEQ ID NO:7), or the cDNA clone for human NK3R (obtained from the Missouri S&T cDNA Resource Center, were inserted into pcDNA3.1 (Invitrogen). The luciferase assay was conducted according to Biran et al., 2008 [4] COS-7 cells were grown in DMEM supplemented with 10% FBS, 1% glutamine, 100 U/ml penicillin, and […] streptomycin (Biological Industries) under 5% CO2 until confluent. Cotransfection of either pc-zftac3ra, pc-zftac3rb or pc-Htac3r (at 3 μg/plate), a reporter plasmid (at 2 μg/plate), and pCMV-β-galactosidase (at 1 μg/plate) was carried out with FuGENE 6.0 reagent (Roche). The cells were serum starved for 36 h, stimulated with vehicle or various concentrations of either human (Sigma) or zebrafish NKBs for 6 h, and then harvested and analyzed. Lysates prepared from the harvested cells were assayed for both luciferase activity and β-galactosidase activity, which was used as an internal standard to normalize the luciferase activity directed by the test plasmid. Transfection experiments were performed in triplicate with three independently isolated sets. Protein structure prediction of zebrafish NKBa, NKBb or NKF were performed on I-Tasser servers.
(§2) The response, binding selectivity and signal transduction pathways of the novel tachykinin receptors to their agonists were evaluated by functional expression analysis, using COS-7 cells.
(§3) The NKB analogues (i.e. the NKBa-analog, NKBb-analog and NKF-analog, as denoted by SEQ ID NO. 44-46) were first analyzed in comparison to their native forms in a transactivation assay, using reporter genes for specific signal transduction pathways. To validate the specificity of the serum-responsive element (SRE)-Luc and cAMP-responsive element (CRE)-Luc reporter systems, specific activators for PLC/PKC and AC/PKA signaling pathways were used in control experiments.
(§4) Thus, the ability of the three novel piscine peptides (namely, NKBa, NKBb and NKF, denoted by SEQ ID NO.40, 41 and 42), as well as the ability of the three analogous agonistic peptides, namely, NKBa-analog, NKBb-analog and NKF-analog, to differentially activate the different tac3 receptors, using SRE as a reporter gene that follows PKC activation and CRE as a reporter gene for the PKA pathway, was tested. Human NK3R (human NKB receptor) and human NKB served as controls.

Mature female carp = test: Gonadotropin release from mature carp in vivo (LH by ELISA); settings: mature female carp just before spawning, injected 20 μg/kg body weight; listed as NKBb analogue
Method: Mature female carp, just before spawning, were injected with NKBa, NKBb and NKF analogues, denoted by SEQ ID NO.44, SEQ ID NO.45 and SEQ ID NO.46, respectively (20 μg/kg body weight). LH levels was measured by specific ELISA, according to Aizen et al. 2012 [33].

zfTac3rb [2] = test: Receptor transactivation assay, SRE-Luc reporter (PKC activation), COS-7 cells expressing zfTac3rb; type: cell-based, zebrafish; settings: Table 7 (native peptides and analogues); PKC activation; mean ± SEM; read-out: EC50 using SRE, zfTac3rb
Method: as §1, §2, §3, §4

zfTac3ra [3] = test: Receptor transactivation assay, SRE-Luc reporter (PKC activation), COS-7 cells expressing zfTac3ra; type: cell-based, zebrafish; settings: Table 7 (native peptides and analogues); PKC activation; mean ± SEM; read-out: EC50 using SRE, zfTac3ra
Method: as §1, §2, §3, §4

zfTac3ra [4] = test: Receptor transactivation assay, CRE-Luc reporter (PKA activation), COS-7 cells expressing zfTac3ra; type: cell-based, zebrafish; settings: Table 6 (native peptides and analogues), PKA activation, mean ± SEM, read-out: EC50 using CRE-Luc, zfTac3ra
Method: as §1, §2, §3, §4

[5] = target: T1, human NK3R (human NKB receptor); test: cell-based or functional assay
[6] = target: T2, zebrafish Tac3ra (tac3 receptor a, NKB …); test: cell-based or functional assay
[7] = target: T3, zebrafish Tac3rb (tac3 receptor b, NKB …); test: cell-based or functional assay
[8] = target: T1, human NK3R (human NKB receptor); test: cell-based or functional assay; remark: listed apart in the source
[9] = target: T2, zebrafish Tac3ra (tac3 receptor a, NKB …); test: cell-based or functional assay
[10] = target: T3, zebrafish Tac3rb (tac3 receptor b, NKB …); test: cell-based or functional assay
[11] = target: T1, human NK3R (human NKB receptor); test: cell-based or functional assay; remark: listed apart in the source
[12] = target: T2, zebrafish Tac3ra (tac3 receptor a, NKB …); test: cell-based or functional assay
[13] = target: T3, zebrafish Tac3rb (tac3 receptor b, NKB …); test: cell-based or functional assay

Molecule	EC50 (zfTac3rb [1]; listed as NKBb-analog) [nM]	EC50 (zfTac3rb [1]) [nM]	LH level (Mature female carp)	EC50 (zfTac3rb [2]) [nM]	EC50 (zfTac3ra [3]) [nM]	EC50 (zfTac3ra [4]; listed as NKBb-analog) [nM]	EC50 (zfTac3ra [4]) [nM]	EC50, CRE-Luc reporter (PKA activation), transfected COS-7 cells [5] [nM]	EC50, SRE-Luc reporter (PKC activation), transfected COS-7 cells [5] [nM]	EC50, CRE-Luc reporter (PKA activation), transfected COS-7 cells [6] [nM]	EC50, SRE-Luc reporter (PKC activation), transfected COS-7 cells [6] [nM]	EC50, CRE-Luc reporter (PKA activation), transfected COS-7 cells [7] [nM]	EC50, SRE-Luc reporter (PKC activation), transfected COS-7 cells [7] [nM]	EC50, SRE reporter gene that follows PKC activation, transfected COS-7 cells [8] [nM]	EC50, SRE reporter gene that follows PKC activation, transfected COS-7 cells [9] [nM]	EC50, SRE reporter gene that follows PKC activation, transfected COS-7 cells [10] [nM]	EC50, CRE-Luc to follow PKA activation, transfected COS-7 cells [11] [nM]	EC50, CRE-Luc to follow PKA activation, transfected COS-7 cells [12] [nM]	EC50, CRE-Luc to follow PKA activation, transfected COS-7 cells [13] [nM]
CSCC[C@H](NC(=O)[C@H](CC(C)C)NC(=O)CNC(=O)[C@H](C(C)C)N(C)C(=O)[C@H](Cc1ccccc1)NC(=O)[C@H](CC(=O)O)NC(=O)CCC(=O)O)C(N)=O [zfNKBb-analog, Succ-Asp-Phe-N(Me)Val-Gly-Leu-Met-NH2] (Suc-DF[NMeV]GLM-NH2)	2.2	2.18 ± 1.34	significant elevation; also recorded: increased the level of LH significantly	0.23	0.06	1.7	1.68 ± 1.21												
B1								605	204	237	8.96	519	33.8	204	6.06	15.3	336	99.6	191
B2								4.36	0.52	4.94	0.54	1.8	0.36	0.52	0.55	0.37	4.36	4.94	1.8
